Reference: IntAct's records for PubMed 19013157

B1: Trimethylamine-N-oxide reductase 1 (Escherichia coli (strain K12)), P33225 (parent)
chain: MNNNDLFQASRRRFLAQLGGLTVAGMLGPSLLTPRRATAAQAATDAVISKEGILTGSHWGAIRATVKDGRFVAAKPFELDKYPSKMIAGLPDHVHNAARIRYPMVRVDWLRKRHLSDTSQRGDNRFVRVSWDEALDMFYEELERVQKTHGPSALLTASGWQSTGMFHNASGMLAKAIALHGNSVGTGGDYSTGAAQVILPRVVGSMEVYEQQTSWPLVLQNSKTIVLWGSDLLKNQQANWWCPDHDVYEYYAQLKAKVAAGEIEVISIDPVVTSTHEYLGREHVKHIAVNPQTDVPLQLALAHTLYSENLYDKNFLANYCVGFEQFLPYLLGEKDGQPKDAAWAEKLTGIDAETIRGLARQMAANRTQIIAGWCVQRMQHGEQWAWMIVVLAAMLGQIGLPGGGFGFGWHYNGAGTPGRKGVILSGFSGSTSIPPVHDNSDYKGYSSTIPIARFIDAILEPGKVINWNGKSVKLPPLKMCIFAGTNPFHRHQQINRIIEGLRKLETVIAIDNQWTSTCRFADIVLPATTQFERNDLDQYGNHSNRGIIAMKQVVPPQFEARNDFDIFRELCRRFNREEAFTEGLDEMGWLKRIWQEGVQQGKGRGVHLPAFDDFWNNKEYVEFDHPQMFVRHQAFREDPDLEPLGTPSGLIEIYSKTIADMNYDDCQGHPMWFEKIERSHGGPGSQKYPLHLQSVHPDFRLHSQLCESETLRQQYTVAGKEPVFINPQDASARGIRNGDVVRVFNARGQVLAGAVVSDRYAPGVARIHEGAWYDPDKGGEPGALCKYGNPNVLTIDIGTSQLAQATSAHTTLVEIEKYNGTVEQVTAFNGPVEMVAQCEYVPASQVKS
partner: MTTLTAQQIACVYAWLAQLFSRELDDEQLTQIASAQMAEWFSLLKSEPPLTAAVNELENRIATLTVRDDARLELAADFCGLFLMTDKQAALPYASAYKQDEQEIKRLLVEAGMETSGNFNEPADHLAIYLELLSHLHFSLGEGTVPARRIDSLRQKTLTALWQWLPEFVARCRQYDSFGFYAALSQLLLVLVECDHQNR
B2: Chaperone protein TorD (Escherichia coli (strain K12)), P36662 (parent)
chain: B1 partner

Variants of: B1
Conditions: with tord_ecoli torD

Row | Variant | effect of a mutation on the interaction
1 | T22Q | increasing interaction

Variants of: B1
Conditions: with tord_ecoli torD
Remark: another data set of the same source

Row | Variant | effect of a mutation on the interaction
2 | G28Q | decreasing interaction

Variants of: B1
Conditions: with tord_ecoli torD
Remark: another data set of the same source

Row | Variant | effect of a mutation on the interaction
3 | L31Q | disrupting interaction

Variants of: B1
Conditions: with tord_ecoli torD
Remark: another data set of the same source

Row | Variant | effect of a mutation on the interaction
4 | L31Q | decreasing interaction

Variants of: B1
Conditions: with tord_ecoli torD
Remark: another data set of the same source

Row | Variant | effect of a mutation on the interaction
5 | L32Q | disrupting interaction

Variants of: B1
Conditions: with tord_ecoli torD
Remark: another data set of the same source

Row | Variant | effect of a mutation on the interaction
6 | L27Q | disrupting interaction

Variants of: B1
Conditions: with tord_ecoli torD
Remark: another data set of the same source

Row | Variant | effect of a mutation on the interaction
7 | G19Q | decreasing interaction

Variants of: B1
Conditions: with tord_ecoli torD
Remark: another data set of the same source

Row | Variant | effect of a mutation on the interaction
8 | V23Q | decreasing interaction

Variants of: B2
Conditions: with tora_ecoli torA

Row | Variant | effect of a mutation on the interaction
9 | L189Q | increasing interaction
10 | F180L | increasing interaction
11 | Q7L | increasing interaction

Variants of: B2
Conditions: with tora_ecoli torA
Remark: another data set of the same source

Row | Variant | effect of a mutation on the interaction
12 | L189Q | decreasing interaction

Variants of: B2
Conditions: with tora_ecoli torA
Remark: another data set of the same source

Row | Variant | effect of a mutation on the interaction
13 | F180L | decreasing interaction

Variants of: B2
Conditions: with tora_ecoli torA
Remark: another data set of the same source

Row | Variant | effect of a mutation on the interaction
14 | Q186L | increasing interaction
